The target in assay [1] is native envelope glycoprotein (Egp) on purified DEN-2 virus (dengue 2 virus) (UniProt P14340). As to the kind of experiment: antigen dot blot, purified DEN-2 virus, mAb 1:100, 125I goat anti-mouse immunoglobulin.
The target of assay [2] is dengue 2 virus recombinant envelope glycoprotein (rEgp) expressed by baculovirus (dengue 2 virus (strain PR 159)) (UniProt P12823). The assay is described as follows: antigen dot blot, extract of infected High-5 cells, mAb 1:100, 125I goat anti-mouse immunoglobulin.
For assay [3], the target named is protein expressed by the recombinant baculovirus clone containing DEN-2 prME genes (ACNPV-prME) (dengue 2 virus). The description is as above.
Assay [4] addresses protein extracted from High-5 cells infected with wild-type baculovirus. As to the kind of experiment: antigen dot blot, negative control extract of wild-type baculovirus infected High-5 cells, mAb 1:100.
In assay [5] the target is native envelope glycoprotein (Egp) on purified DEN-2 virus (dengue 2 virus) (UniProt P14340). The assay is described as follows: particle fluorescence assay (PFCIA), FITC-labeled mAb on antigen-coated polystyrene beads, pH 5.0, purified DEN-2 virus.
Assay [6] deals with dengue 2 virus recombinant envelope glycoprotein (rEgp) expressed by baculovirus (dengue 2 virus (strain PR 159)) (UniProt P12823). The assay is described as follows: particle fluorescence assay (PFCIA), FITC-labeled mAb on antigen-coated polystyrene beads, pH 5.0, partially-purified recombinant E protein.
Assay [7] shares this target. As to the kind of experiment: particle fluorescence assay (PFCIA), FITC-labeled mAb on antigen-coated polystyrene beads, pH 5.0, lysate of cells infected with the E-protein recombinant baculovirus.

Consider two substances from patent publication US7265215.

Regarding monoclonal antibody 4G2, the Reactivity with antigen (cpm) in assay [1] worked out at 16800 cpm; in assay [2], 8500 cpm; in assay [3] it was 5000 cpm; in assay [4] it was 1000 cpm. Moreover, the values for the Binding affinity in assay [5], in assay [6] and in assay [7] were 1.3e-06, 2.3e-06 and 2.9e-06, respectively.
As to monoclonal antibody 3H5, the Reactivity with antigen (cpm) in assay [1] came out at 7500 cpm; in assay [2], 13600 cpm; in assay [3], 10100 cpm; in assay [4], 1400 cpm.
